B1: B10v5x425 (bispecific antibody, V domains shown)
VL (c-MET arm): EPVLTQPPSVSVAPGETATIPCGGDSLGSKIVHWYQQRPGQAPLLVVYDDAARPSGIPERFSGSKSGTTATLTISSVEAGDEADYFCQVYDYHSDVEVFGGGTKLTVLGQPKAA
VH (c-MET arm): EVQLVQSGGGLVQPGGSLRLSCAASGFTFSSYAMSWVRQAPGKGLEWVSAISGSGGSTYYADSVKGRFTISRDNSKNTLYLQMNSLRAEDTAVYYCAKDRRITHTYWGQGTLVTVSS
VL (EGFR arm): DIQMTQSPSSLSASVGDRVTITCSASSSVTYMYWYQQKPGKAPKLLIYDTSNLASGVPSRFSGSGSGTDYTFTISSLQPEDIATYYCQQWSSHIFTFGQGTKVEIKR
VH (EGFR arm): QVQLVQSGAEVKKPGASVKVSCKASGYTFTSHWMHWVRQAPGQGLEWIGEFNPSNGRTNYNEKFKSKATMTVDTSTNTAYMELSSLRSEDTAVYYCASRDYDYDGRYFDYWGQGTLVTVSS
notes: c-MET x EGFR SEED bispecific
B2: matuzumab (425) (antibody, V domains shown)
VH: QVQLVQSGAEVKKPGASVKVSCKASGYTFTSHWMHWVRQAPGQGLEWIGEFNPSNGRTNYNEKFKSKATMTVDTSTNTAYMELSSLRSEDTAVYYCASRDYDYDGRYFDYWGQGTLVTVSS
VL: DIQMTQSPSSLSASVGDRVTITCSASSSVTYMYWYQQKPGKAPKLLIYDTSNLASGVPSRFSGSGSGTDYTFTISSLQPEDIATYYCQQWSSHIFTFGQGTKVEIKG
B3: B10v5x225-M (bispecific c-MET x EGFR SEEDbody) (bispecific antibody, V domains shown)
VH 1: not shown
VL 1: EPVLTQPPSVSVAPGETATIPCGGDSLGSKIVHWYQQRPGQAPLLVVYDDAARPSGIPERFSGSKSGTTATLTISSVEAGDEADYFCQVYDYHSDVEVFGGGTKLTVLGQPKAA
VH 2: EVQLVQSGAEVKKPGASVKVSCKASGFSLTNYGVHWMRQAPGQGLEWIGVIWSGGNTDYNTPFTSRVTITSDKSTSTAYMELSSLRSEDTAVYYCARALTYYDYEFAYWGQGTLVTVSS
VL 2: DIQMTQSPSSLSASVGDRVTITCRASQSIGTNIHWYQQKPGKAPKLLIKYASESISGVPSRFSGSGYGTDFTLTISSLQPEDVATYYCQQNYNWPTTFGQGTKVEIK
notes: SEEDbody format (IgG1 hinge-CH2-SEED CH3)
B4: CS06x425 (bispecific antibody, V domains shown)
VL (c-MET arm): QLVLTQSPSVSVAPGKTARITCGGNNIRNVGVHWYQKKPGQAPILVVYDDDDRPSGVPERFSGSNSGNTATLTISRVEAGDEADYYCQVWDSATDQRVFGGGTKLTVLGQPKAG
VH (c-MET arm): QVQLQQSGAEVKKPGSSAKVSCKASGGTFSSNAISWVRQAPGQGLEWMGGIIPIFGTAIYAQKFQGRVTITADESTSTAYMELSSLRSEDTAVYYCARDQRGYYYYYYYGMDVWGQGTTVTVSS
VL (EGFR arm): DIQMTQSPSSLSASVGDRVTITCSASSSVTYMYWYQQKPGKAPKLLIYDTSNLASGVPSRFSGSGSGTDYTFTISSLQPEDIATYYCQQWSSHIFTFGQGTKVEIKR
VH (EGFR arm): QVQLVQSGAEVKKPGASVKVSCKASGYTFTSHWMHWVRQAPGQGLEWIGEFNPSNGRTNYNEKFKSKATMTVDTSTNTAYMELSSLRSEDTAVYYCASRDYDYDGRYFDYWGQGTLVTVSS
notes: c-MET x EGFR SEED bispecific
B5: B10x425 (bispecific antibody, V domains shown)
VL (c-MET arm): QSVLTQPPSTSGTPGQRVTISCFGSSSNVGVNTVNWYRQLPGTAPKLLIYDNNLRPSGVPERFSGSKSGTSASLAITGLQAEDEGDYYCQSYDSSLSDVVFGGGTKLTVLGQPKAG
VH (c-MET arm): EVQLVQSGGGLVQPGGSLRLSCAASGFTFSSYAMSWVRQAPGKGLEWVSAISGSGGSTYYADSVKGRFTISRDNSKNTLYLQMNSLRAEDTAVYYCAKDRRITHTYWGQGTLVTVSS
VL (EGFR arm): DIQMTQSPSSLSASVGDRVTITCSASSSVTYMYWYQQKPGKAPKLLIYDTSNLASGVPSRFSGSGSGTDYTFTISSLQPEDIATYYCQQWSSHIFTFGQGTKVEIKR
VH (EGFR arm): QVQLVQSGAEVKKPGASVKVSCKASGYTFTSHWMHWVRQAPGQGLEWIGEFNPSNGRTNYNEKFKSKATMTVDTSTNTAYMELSSLRSEDTAVYYCASRDYDYDGRYFDYWGQGTLVTVSS
notes: c-MET x EGFR SEED bispecific
B6: CS06x225-L (bispecific antibody, V domains shown)
VL (c-MET arm): QLVLTQSPSVSVAPGKTARITCGGNNIRNVGVHWYQKKPGQAPILVVYDDDDRPSGVPERFSGSNSGNTATLTISRVEAGDEADYYCQVWDSATDQRVFGGGTKLTVLGQPKAG
VH (c-MET arm): QVQLQQSGAEVKKPGSSAKVSCKASGGTFSSNAISWVRQAPGQGLEWMGGIIPIFGTAIYAQKFQGRVTITADESTSTAYMELSSLRSEDTAVYYCARDQRGYYYYYYYGMDVWGQGTTVTVSS
VL (EGFR arm): DIQMTQSPSSLSASVGDRVTITCRASQSIGTNIHWYQQKPGKAPKLLIKYASESISGVPSRFSGSGYGTDFTLTISSLQPEDVATYYCQQNNNWPTTFGQGTKVEIK
VH (EGFR arm): EVQLVQSGAEVKKPGASVKVSCKASGFSLTNYGVHWMRQAPGQGLEWIGVIWRGGNTDYNTPFTSRVTITSDKSTSTAYMELSSLRSEDTAVYYCARALTYYDYEFAYWGQGTLVTVSS
notes: c-MET x EGFR SEED bispecific
B7: B10x225-L (bispecific antibody, V domains shown)
VL (c-MET arm): QSVLTQPPSTSGTPGQRVTISCFGSSSNVGVNTVNWYRQLPGTAPKLLIYDNNLRPSGVPERFSGSKSGTSASLAITGLQAEDEGDYYCQSYDSSLSDVVFGGGTKLTVLGQPKAG
VH (c-MET arm): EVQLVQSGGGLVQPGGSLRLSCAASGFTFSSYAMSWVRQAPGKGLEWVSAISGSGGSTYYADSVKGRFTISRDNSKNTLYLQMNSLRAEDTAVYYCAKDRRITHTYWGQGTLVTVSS
VL (EGFR arm): DIQMTQSPSSLSASVGDRVTITCRASQSIGTNIHWYQQKPGKAPKLLIKYASESISGVPSRFSGSGYGTDFTLTISSLQPEDVATYYCQQNNNWPTTFGQGTKVEIK
VH (EGFR arm): EVQLVQSGAEVKKPGASVKVSCKASGFSLTNYGVHWMRQAPGQGLEWIGVIWRGGNTDYNTPFTSRVTITSDKSTSTAYMELSSLRSEDTAVYYCARALTYYDYEFAYWGQGTLVTVSS
notes: c-MET x EGFR SEED bispecific; also called 225L, B10
B8: CS06x225-M (bispecific antibody, V domains shown)
VL (c-MET arm): QLVLTQSPSVSVAPGKTARITCGGNNIRNVGVHWYQKKPGQAPILVVYDDDDRPSGVPERFSGSNSGNTATLTISRVEAGDEADYYCQVWDSATDQRVFGGGTKLTVLGQPKAG
VH (c-MET arm): QVQLQQSGAEVKKPGSSAKVSCKASGGTFSSNAISWVRQAPGQGLEWMGGIIPIFGTAIYAQKFQGRVTITADESTSTAYMELSSLRSEDTAVYYCARDQRGYYYYYYYGMDVWGQGTTVTVSS
VL (EGFR arm): DIQMTQSPSSLSASVGDRVTITCRASQSIGTNIHWYQQKPGKAPKLLIKYASESISGVPSRFSGSGYGTDFTLTISSLQPEDVATYYCQQNYNWPTTFGQGTKVEIK
VH (EGFR arm): EVQLVQSGAEVKKPGASVKVSCKASGFSLTNYGVHWMRQAPGQGLEWIGVIWSGGNTDYNTPFTSRVTITSDKSTSTAYMELSSLRSEDTAVYYCARALTYYDYEFAYWGQGTLVTVSS
notes: c-MET x EGFR SEED bispecific
B9: B10x225-M (bispecific antibody, V domains shown)
VL (c-MET arm): QSVLTQPPSTSGTPGQRVTISCFGSSSNVGVNTVNWYRQLPGTAPKLLIYDNNLRPSGVPERFSGSKSGTSASLAITGLQAEDEGDYYCQSYDSSLSDVVFGGGTKLTVLGQPKAG
VH (c-MET arm): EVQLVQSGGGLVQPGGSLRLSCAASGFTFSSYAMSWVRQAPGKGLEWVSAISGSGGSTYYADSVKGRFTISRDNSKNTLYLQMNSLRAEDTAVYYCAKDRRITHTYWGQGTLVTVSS
VL (EGFR arm): DIQMTQSPSSLSASVGDRVTITCRASQSIGTNIHWYQQKPGKAPKLLIKYASESISGVPSRFSGSGYGTDFTLTISSLQPEDVATYYCQQNYNWPTTFGQGTKVEIK
VH (EGFR arm): EVQLVQSGAEVKKPGASVKVSCKASGFSLTNYGVHWMRQAPGQGLEWIGVIWSGGNTDYNTPFTSRVTITSDKSTSTAYMELSSLRSEDTAVYYCARALTYYDYEFAYWGQGTLVTVSS
notes: c-MET x EGFR SEED bispecific
B10: B10x225-H (bispecific antibody, V domains shown)
VL (c-MET arm): QSVLTQPPSTSGTPGQRVTISCFGSSSNVGVNTVNWYRQLPGTAPKLLIYDNNLRPSGVPERFSGSKSGTSASLAITGLQAEDEGDYYCQSYDSSLSDVVFGGGTKLTVLGQPKAG
VH (c-MET arm): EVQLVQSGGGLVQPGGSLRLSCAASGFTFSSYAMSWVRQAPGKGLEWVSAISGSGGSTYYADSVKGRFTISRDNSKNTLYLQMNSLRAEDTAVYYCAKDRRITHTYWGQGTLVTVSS
VL (EGFR arm): DIQMTQSPSSLSASVGDRVTITCRASQSIGTNIHWYQQKPGKAPKLLIKYASESISGVPSRFSGSGYGTDFTLTISSLQPEDVATYYCQQNNEWPNTFGQGTKVEIK
VH (EGFR arm): EVQLVQSGAEVKKPGASVKVSCKASGFSLTNYGVHWMRQAPGQGLEWIGVIWSGGNTDYNTPFTSRVTITSDKSTSTAYMELSSLRSEDTAVYYCARALDYYDYEFAYWGQGTLVTVSS
notes: c-MET x EGFR SEED bispecific

Columns and labels:
[1] = biological target: T1, c-MET and EGFR co-expressed on cells (human, UniProt P08581;P00533); assay: flow cytometry, A549 cells (c-MET+ EGFR++)
T1 construct: endogenous receptor on the cell surface; not a complex: two separate receptors on the same cell; used as target only for bispecific c-MET x EGFR molecules, whose cell staining cannot be split between the two arms; also called cells that carry both receptors: NCI-H441, EBC-1, A431, MKN-45, A549, HepG2 (cell line under assay)

[2] = biological target: T1, c-MET and EGFR co-expressed on cells; assay: flow cytometry, HepG2 cells (c-MET+ EGFR+)
[3] = biological target: T1, c-MET and EGFR co-expressed on cells; assay: flow cytometry, A431 cells (c-MET+ EGFR+++)
[4] = biological target: T2, c-MET on cells (human, UniProt P08581); assay: flow cytometry, SK-MEL2 cells (c-MET+ EGFR-)
T2 construct: endogenous receptor on the cell surface; for A549 cells m4 is used; also called HGFR; on NCI-H441, EBC-1, A431, MKN-45, SK-MEL2 or HepG2 cells (cell line under assay)

[5] = biological target: T1, c-MET and EGFR co-expressed on cells; assay: flow cytometry, EBC-1 cells (c-MET+++ EGFR++)
[6] = biological target: T1, c-MET and EGFR co-expressed on cells; assay: flow cytometry, MKN-45 cells (c-MET+++ EGFR++)
[7] = biological target: T3, EGFR (soluble extracellular domain) (human, UniProt P00533); assay: BLI (Octet), antibody on anti-human Fc biosensors, soluble EGFR ECD as analyte
T3 construct: soluble extracellular domain; also called Human EGFR extracellular domain, R&D Systems 1095-ER

[8] = biological target: T4, biotinylated recombinant human c-MET ECD (HGFR extracellular domain) (human, UniProt P08581 25-932, biotinylated (sites not given)); assay: BLI (Octet), antibody on anti-human Fc biosensors, soluble c-MET ECD as analyte
T4 construct: extracellular domain; also called human c-MET ECD-His

Binder	MFI at 100 nM [1]	MFI at 100 nM [2]	MFI at 100 nM [3]	MFI at 100 nM [4]	MFI at 100 nM [5]	MFI at 100 nM [6]	Kd [7]	koff [7]	kon [7]	Kd [8]	koff [8]	kon [8]
B1	328	348	1430	213	1960	1280						
B2							12 nM	0.0078 s⁻¹	640000 M⁻¹ s⁻¹			
B3	383	793	1290	457	2280	1270	4.7 nM	0.017 s⁻¹	3.6e+06 M⁻¹ s⁻¹	0.37 nM	0.00015 s⁻¹	400000 M⁻¹ s⁻¹
B4	268	164	1350	132	1370	1450						
B5	270	101	1120	25	361	1260						
B6	212	254	890	188	2048	1530						
B7	192	85	947	23	434	1220						
B8	264	330	1170	236	1870	1470	3.9 nM	0.018 s⁻¹	4.6e+06 M⁻¹ s⁻¹	0.21 nM	0.00022 s⁻¹	1.1e+06 M⁻¹ s⁻¹
B9	572	84	1480	53	671	1790						
B10	454	100	1980	64	948	1320						

From patent US20180326085A1 (Merck KGaA, published 2018)
